The values below come from a protein production outcome set (Wang et al. 2014).
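Further: failed if final PepcDB status was selected cloned or expressed and not failed if soluble or beyond.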

This data set is described as follows: label from the status in PepcDB records.
As for “MSEVVKKFMYLNRKAPYGTIYAWEALEVVLIGAAFDQDVCVLFLDDGVYQLTRGQDTKGIGMKNFSPTYRTLGDYEVRRIYVDRDSLEARGLTQDDLVEIAFEDMETEEEFDNIVEVIDSARVSELMNESDAVFSF”, the protein production result was “not failed”. In the case of “MTNLVDKAAHSFATQNVVFQTLATASGKLVGVVTLNVEKALNALDLDMVRAMTVQLNLWKKDPLIACVVLDGSGEKAFCAGGDVRALYHASVAAKGQVTEVAKVFFEEEYRLDYLLHTYGKPVLVWGDGIVMGGGLGLMAGASHKVVTETSRIAMPEVTIGLYPDVGGSYFLNRMPGKMGLFLGLTAYHMNAADACYVGLADHYLNRDDKELMFDAMATLDWSDSPALNHQRLDTMINELSNQVDIPKGDSVLAESQEMIDRLMAGSLTDIVTRMSTLSTDEAWLSKACATMLAGSPISWHLAYIQTQLGTKLSLAQCFKWELTVSVNVCAKGDFCEGVRALLIDKDKQPKWQFADVQSVPNSVIEDILTSPWGEEHPLSQLS”, the protein production result is recorded as “not failed”. For the sequence “IHHLPPVKAPLQTKKKIMKHCFLCGKKTGLATSFECRCGNNFCASHRYAEAHGCNYDYKSAGRRYLEEANPV”, the protein production entry was “not failed”.

In the case of “DNMEAVKTFNSELYSLNDYKPPISKAKMTQITKAAIKAIKFYKHVVQSVEKFIQKCKPEYKVPGLYVIDSIVRQSRHQFGQEKDVFAPRFSNNIISTFQNLYRCPGDDKSKIVRVLNLWQKNNVFKSEIIQPLLDMAAG”, the protein production entry is recorded as “not failed”. The entry for “MGHHHHHHSHMSRVPPTVTNAVSWRSEGIKYKKNEVFIDVIESVNLLVNANGSVLLSEIVGTIKLKVFLSGMPELRLGLNDRVLFELTGRSKNKSVELEDVKFHQCVRLSRFDNDRTISFIPPDGDFELMSYRLSTQVKPLIWIESVIEKFSHSRVEIMVKAKGQFKKQSVANGVEISVPVPSDADSPRFKTSVGSAKYVPERNVVIWSIKSFPGGKEYLMRAHFGLPSVEKEEVEGRPPIGVKFEIPYFTVSGIQVRYMKIIEKSGYQALPWVRYITQSGDYQLRTS” is “failed”.

Regarding “MIGLMIRVAGQLGRYARLLPATAGMVLVLQVAAQADVLTINGGAKFTNYPMVTLGINAALHGGTVQAMRFSIDDSTWTDWEPVAASKRFKLTEPLSLSFYDVFLQFQQDGVAVPDPPYPAAIVYDDLIDTGFFGGQGVALLGGTGSDRGKGVVVQPDGKLLVVGTVEQAAGNTDIVLWRLTAQGEPDTGFGVQGSVVIDAGTADRAAGVALQGDGKILVLGTVGSATTAWEVRRYDSAGVLDTSFGTGGKYQEGASGANEAGNLLVQPDGRIVIIGSRDVAGAKKIQVIRLTATGVLDSAFNGNTGYYRPNLPGNSFGNGVALQADGKILLVGTYANPSGETDLFVQRLKTDGTLDNFNDGLNNFFMAGDAGNDEGLGIAVQPDGKIVVVGAYQWGAGDTDIWVLRLNENGTRDNDFNAPVGDYKDGDVYNDRAEALVIQPDGKIVVVGSFGYATDTDILVFRLNADGTTDNTIYNFYGFYTINSGDDEGQGVALQPDGNIVLVSTFTREEGDTDIHVHRIFGRKETLSVSTTGGGSVADDLGAFTWVDLSGEGDYLQGDSVALTAAPATGYVFTGWGGDCAGTSPVCTVTMDGAKNVTASFSLDRPAAPTGLSGVPGNGTAGISWTASQESGITGYKVYYGITSGNYATPDPVGTTPAHVISGLMNGVTYYIAVSVLKNGVEGPKSAEITVTPGINLSVTVVGTGGGTVSSAPGGISCLDGSGCSAVFNAAPVVLSATPSAGSIFAGWSGACSGTDGCTVTQYGPVAVTATFTKMPPVKLTAGTTSYYSTIAEAYAACIGGTSCTIETQATELAGNVTLANAIAVLFKGGYDATFSSSPGLTTLQGVVTVGRGSLTAQNVVIR”, the protein production result is recorded as “failed”. The entry for “MKKLVHLSDFHYDGLRLSEEMLAEAIAVSNQVQPDLVLLTGDYVTTTPQPIHQLAKRLQKLQSHAGIYAILGNHDLYQKNSKTEITQALTKAGIQVLWNEIAYPLGEELPIVGIVDYYYREFNPQLLFNQLEPTTPRIVLCHNPDTAAMLQGWRVDLQLSGHTHGGLEHHHHHH” is “failed”; for “MNQNWHATLIRHLLLLITVCLIGGLVSGYYGWSLAIGLALYLGWTLKQLLRLHDWLRNHQPDEAPPDGYGLWGEVFDSIYHLQRRDQRVRGRLQAVIDRVQESTAALRDAVIMLDSDGNLEWWNRAAETLLGFKTPQDGGQQVTNLVRHPLFKEYFEAENYLEPLEIPSPINDRMRVQLHITRYGNNEHLMLVRDVTRIHQLEQMRKDFVANVSHELRTPLTVITGYLETLLDNVEDVNPRWSRALQQMSQQGSRMQTLLNDLLLLAKLEATDYPSDNQPVAVDALLAAIKNDAQALSGPRNQRINLEAAPGVKLKGSESELRSAFSNLVFNAVKYTQDEGSIRIRWWADAQGAHLSVQDSGVGIDAKHLPRLTERFYRVDSSRASNTGGTGLGLAIVKHVLMRHRGKLEISSVPGHGSTFTCHFAPAQLANEKA” it is “failed”; for “MIKAILIFNNHGKPRLCKFYQHYSEDTQQQIIRETFHLVSKRDENVCNFLEGGLLIGGSDNKLIYRHYATLYFVFCVDSSESELGILDLIQVFVETLDKCFENVCELDLIFHVDKVHNILAEMVMGGMVLETNMNEIVTQIDA” it is “not failed”. On to “MMLRRLALSAATGLMLALPALAETVSDFRLPNGLEVVVIEDHRAPVVTHMVWYRVGAADEPPGHSGIAHFLEHLMFKGTDEMSAGEFSATVEAQGGDDNAFTSWDYTAYFQRVAADRLDLMMKMEADRMRDLQMTEEDVRTERQVVLEERSQRTDSDPGAVFSEQSRAAAYLNHPYGIPIIGWRHEIEQLGREDAFSFYRTYYAPNNAILVVAGDVDPAEVRRMAEEHYGALEPTPNLPERLRPQEPPQLAERRLTFSDPRVAQPYVSRSYLAATRETGAQEKAAALTILAELLGGSPTTSLLSRELQFGPEPKAVWAQAYYDGGGLDSGTFGLAVVPAAGVSLQEAEDAMDAVVARFLKEGPDAEDFERIKTQLGAQDIYSRDNVDGLARRYGAALTTGLTVADVQAWPEVLQAVTPDEVMAAAREVFDRRRAVTGWLMQEDEEKSQ”, for which the protein production result is given as “failed”. The entry for “MDYFGLAAKYIPFVTLGLLPIMNPLSTVPLFLELTKRMSPERKHQQARRACLYALSILAVFLFIGNGIITLFGISLAGIRVAGGLIILVLAFRMLFSGEGEEASIETEATEIKRANLDFSFSPLAMPSLAGPGSIAVVMSYGSQIPDDALVFGHFIVICGISITVLIAYIALAGSAWIAKFLGEHGIQAVTKIMGFLLTCIAVQFIASGIRDFSQTL” is “failed”; for “METTSVFRADFLSELDAPAQAGTESAVSGVEGLPPGSALLVVKRGPNAGSRFLLDQAITSAGRHPDSDIFLDDVTVSRRHAEFRLENNEFNVVDVGSLNGTYVNREPVDSAVLANGDEVQIGKFRLVFLTGPKQGEDLEHHHHHH” it is “failed”; for “MALRQKLGWSEGDLMRSDAKPCSRLMKQTAAIFTVGGALGFWVLCRLHYGPRITVPRSLRWAGCGALSVSTSTAMLVRLFSPECEPQNIAAYDNIKTPQASLP” it is “failed”.

Turning to “MKTKGWGALAVLPLALALAGNVAAEEVKGKVKTVSVKAGQISLTVESKGVMLFRVTDGTTFANAASIREIHADDLLQVDYRVDGFDNVAKAVAKVVAKLPEGVTAMDTRELEALVAKGTEEGGYLLIDSRPAGKYNEAHIPTAVSIPFAELEKNPALLTASKDRLLVFYCGGVTUVLSPKSAGLAKKSGYEKVRVYLDGEPEWKKAELPLESSLAFVEKGNIVLIDLRSPEKVAAGHIPGAVGIPAADLAAAQAKFPAYRGAHLVFYSDSAEDLSQALELARDWNYKNATIFPGGIGAWQKAGKHLKTGAAAATVTYVKKLAPGEVGTEDFQAALKDGRTVVIDARAPGEFEKGHFKGAVNIPAEEAAKRLAEIPADRPVLVHCSTGTRAEMVYDLVKDKGYNLKYLKAGVEFAADGSYTISE”, the protein production result is “failed”. Take “MLFAAEGGGFFSSSASGYSNGLALLLLGQKTEQKPIKVSSQWNHYHLVLEDSDTGFRLDSSKNWLSSACTSLICFGRKSERLESEGKKDEAPSVEDYNNCEVTNRFALKSSLKKRSFSDVVIGDDDVSRDGVVDHIDRRKVQWPDTCGIEIAEVREFEPRYGCFLL”: the protein production result was “failed”. The entry for “MNTHYVGPVLYTPKENVSEKLLKLFDADQPIIFCYTARFYDNVGESGKAIFDNMIKIADKIDASIIISTGNKKDELLALDIASKELKSGKVSIVDYVPLDMAYEKSDLVIHHGGHGSCLAQFYYGVPSVIIPTHTEREYNARMCEKLHVGKMLPRRELNSANLKNCINDVLNDITYKKSVRDWKEKVSGLEHHHHHH” is “failed”. The entry for “LGLVCLTVGPEVRFRTVTLSRYRALSPAEREAKLLDLYSSNIKTLRGAADYCAAHDIRLYRLSSSLFPMLDLAGDDTGAAVLTHLAPQLLEAGHAFTDAGVRLLMHPEQFIVLNSDRPEVRESSVRAMSAHARVMDGLGLARTPWNLLLLHGGKGGRGAELAALIPDLPDPVRLRLGLENDERAYSPAELLPICEATGTPLVFDAHHHVVHDKLPDQEDPSVREWVLRARATWQPPEWQVVHLSNGIEGPQDRRHSHLIADFPSAYADVPWIEVEAKGKEEAIAALRLMAPFKKD” is “failed”.

For the sequence “MGKENSKVVVLDFWASPYAMRTKVALREKGVEFEVQEEDLWNKSELLLKSNPVHKKVPVLIHNNTPISESLIQVQYIDETWTDAASFLPSDPQSRATARFWADYADKTISFEGGRKIWGNKKGEEQEKGKKEFLESLKVLEAELGDKSYFGGETFGYVDITLVPFYSWFYALEKCGDFSVEAECPKIVAWGKRCVERNSVAATLPESEKVYQQVLKLRQIFGVE”, the protein production result is listed as “failed”. The entry for “MWITQETWLKALPWNKKRYRSQIMEVICKHYTPLDIASQAIRTCWQSFEYSDDGGCKDKELIHRVGNIFRHSSTLEHLYYNFEIKGLSRGALQELSRHRIASLSVKSSRYTLRELKEVESFLPLNETNLERAKEFLVFVDNEKVNAMSVLALENLRILLSEHNIKNDLAKYAMPESYKTHLAYSINARSLQNFLTLRSSNKALKEMQDLAKALFDALPGEHQYLFEDCLKH” is “failed”; for “MGYDPRISVSKWYEKWMLIYVVHSVKATTLSNYVNGFERVREYIGYMRLIEVRPTHILDMIKGLEEEGYARTTVIQSLSVVRQLFKKAYGGKMIPIDPVADIKLEHHHHHH” it is “not failed”; for “MANRLRTGIDVLDRKLDGGIPAGSIVVLSAQPASQAELFLYELTATRGTLWLSLDRTAESVIASIEQTPANTGDPTVRHISGEAPLDNAGKLVSALPETSNLIVDPLDVLEAQEPHSRFRAFMNDLQNHIVNTGSLAIVHCLDGRDVPPLRDTTEHFADVVFQLNTTTNGDEVENRLAIPKFRGGRAPTDIIKLNLVEEVSIDTSRDIALEHHHHHH” it is “failed”. Regarding “MQPFYIKKGRGSVIYSSVRKDLPPFHLFQMGKYSVVEDFSCLNNAVGDIVIGDYCRIGLGNTVIGPIRIDNGVNISQNVVLIGLDHNYQDITQGIIEQGITTSPIHIGEHTIIGANVIVLPGITIGKHCFIGAGCVVTQNIPDYCVTVGNPARIIKRYNPQSQTWEKILEHHHHHH”, the protein production entry is given as “failed”. On to “QLTVRRVAEHDLAALSEKAGGPVSIGTRDRLQVVYVDTIHDRGNNGAKPDIGSSRPLLHTAMGRALLYTFDAAERELLMPLLLEQEPQQGDAARAALEEAFAQIARTGFCTSYGSWRPELAGLAAPLRYRAGDLPFAINLTLPIDAVKDGRAEQEFGPYLARLAQSIDRRLGVDV”, for which the protein production entry is listed as “failed”.

As to “MLDPARGYDLIGDVHGCAHTLEHLLELLGYRLQAGVWRHPERIAIFLGDIIDRGPRIRESLHIVRDMVQAGQAYCIMGNHEFNALGWMTPALPESGHLFVREHTPRHARLIGETLAQFEAYPDEWNEFVNWFYELPLYIDAGRFRVVHACWDATLIDPLRGLHGTGCIDRHFVQASAVPGSFASNVFNRLLRGTDMRLPHGLTLTGGDGLTREFFRTKFWEDNPQTYGDVVFQPDALPEGVAKTPLSTSEKNALLRYGSNEPLLFVGHYWRSGIPAPIRPNLACLDYSAVLYGKLVAYRLDQETHVDPDKFVWVDVQRPEVSP”, the protein production entry was “failed”.
